Data as given in PMC4346803, “Supramolecular protein assembly supports immobilization of a cytochrome P450 monooxygenase system as water-insoluble gel” (Scientific Reports, 2015).

Columns and labels:
[1] = target: PTDH-PCNA1_(G108C)-PdR (Pseudomonas stutzeri | Sulfolobus solfataricus | Pseudomonas putida); assay: SEC; non-denatured fusion proteins, masses estimated against globular protein standards
[2] = target: PTDH-PCNA1_(G108C)-PdR (Pseudomonas stutzeri | Sulfolobus solfataricus | Pseudomonas putida); assay: dynamic light scattering; diameters of the PTDH-fused proteins compared with their counterparts without PTDH fusion
[3] = target: PTDH-PCNA3_(R112C/T180C)-P450cam (Pseudomonas stutzeri | Sulfolobus solfataricus | Pseudomonas putida); assay: SEC; non-denatured fusion proteins, masses estimated against globular protein standards
[4] = target: PTDH-PCNA3_(R112C/T180C)-P450cam (Pseudomonas stutzeri | Sulfolobus solfataricus | Pseudomonas putida); assay: dynamic light scattering; diameters of the PTDH-fused proteins compared with their counterparts without PTDH fusion
[5] = target: the molecule itself; assay: SEC; non-denatured fusion proteins, masses estimated against globular protein standards

Work on PTDH-PCNA1_(G108C)-PdR yielded a stoichiometry N [1] of 2 and a stoichiometry N [2] of 2.

PTDH-PCNA3_(R112C/T180C)-P450cam showed a stoichiometry N [3] of 2 and a stoichiometry N [4] of 2.

B1: PTDH-PCNA2_(L171C)-PdX (other)
chain: MLPKLVITHRVHDEILQLLAPHCELMTNQTDSTLTREEILRRCRDAQAMMAFMPDRVDADFLQACPELRVVGCALKGFDNFDVDACTARGVWLTFVPDLLTVPTAELAIGLAVGLGRHLRAADAFVRSGEFQGWQPQFYGTGLDNATVGILGMGAIGLAMADRLQGWGATLQYHARKALDTQTEQRLGLRQVACSELFASSDFILLALPLNADTQHLVNAELLALVRPGALLVNPCRGSVVDEAAVLAALERGQLGGYAADVFEMEDWARADRPRLIDPALLAHPNTLFTPHIGSAVRAVRLEIERCAAQNIIQVLAGARPINAANRLPKAEPAACMKAKVIDAVSFSYILRTVGDFLSEANFIVTKEGIRVSGIDPSRVVFLDIFLPSSYFEGFEVSQEKEIIGFKLEDVNDILKRVLKDDTLILSSNESKLTLTFDGEFTRSFELPLIQVESTQPPSVNLEFPFKAQLLTITFADIIDELSDLGEVLNIHSKENKLYFEVIGDCSTAKVELSTDNGTLLEASGADVSSSYGMEYVANTTKMRRASDSMELYFGSQIPLKLRFKLPQEGYGDFYIAPRADSKVVYVSHDGTRRELDVADGVSLMQAAVSNGIYDIVGDCGGSASCATCHVYVNEAFTDKVPAANEREIGMLESVTAELKPNSRLSCQIIMTPELDGIVVDVPDRQW
B1 was tested, and the “stoichiometry N” value [5] was 2.
